Experiment: label from the status in PepcDB records
With “MKALNKIRYAFLVCTLMVLVTLAGCNSADRSAEPPQSSHQGSEQEGAKKTPLNVEVFNLGERSMFAVSSVLVTGTADAILIDTQFSAADARQLVDKIKASGKRLKAIYISHGDPDYYFGLDSVHAAFPEAKVFATPQTIAHIQATKDAKLKLWAPQLGQDAPKQILIPEPMQGDQLVLEGQELRIIGMDGPTPDRTFVWIPSSRTVAGGISVMGAQHVWMADTQTPQSHMEWLAVLDRIKSMDPKVVVPGHFLPGASLDVRSVTFTADYIRAFDEETVKAKDSAALIAAMKQRYPGLGGEGSLELSAKVAKGEMEWK” the protein production was “failed”.
With “MKASFKGKFDVDKSGSVASLTFNAGNAKLRATMTDASFVAGPSFNGLSLAVEKPGFFIIDYNVPKKDVRFQFMNTIRIAEKPLNLTYIHMRGDNRTIVDGSFVIDPANKLSANYMVGTKNCKLKYTYVHGGIATFEPCYDVAKNMWDFAISHKLYGGDNLKATYQTSSKMLGLEWSNNSKSTGSFKVCASMNLAEELKPPKLTAETTWNLEL” the protein production was “not failed”.
With “MKASSLAFSLLSAAFYLLWTPSTGLKTLNLGSCVIATNLQEIRNGFSEIRGSVQAKDGNIDIRILRRTESLQDTKPANRCCLLRHLLRLYLDRVFKNYQTPDHYTLRKISSLANSFLTIKKDLRLCHAHMTCHCGEEAMKKYSQILSHFEKLEPQAAVVKALGELDILLQWMEETE” the protein production was “failed”.
With “MKATFQVPSITCNHCVDKIEKFVGEIEGVSFIDVSVEKKSVVVEFDAPATQDLIKEALLDAGQEVV” the protein production was “failed”.
In the case of “MKATLAAPSSLTSLPYRTNSSFGSKSSLLFRSPSSSSSVSMTTTRGNVAVAAAATSTEALRKGIAEFYNETSGLWEEIWGDHMHHGFYDPDSSVQLSDSGHKEAQIRMIEESLRFAGVTDEEEEKKIKKVVDVGCGIGGSSRYLASKFGAECIGITLSPVQAKRANDLAAAQSLAHKASFQVADALDQPFEDGKFDLVWSMESGEHMPDKAKFVKELVRVAAPGGRIIIVTWCHRNLSAGEEALQPWEQNILDKICKTFYLPAWCSTDDYVNLLQSHSLQDIKCADWSENVAPFWPAVIRTALTWKGLVSLLRSGMKSIKGALTMPLMIEGYKKGVIKFGIITCQKPL”, the protein production is reported as “failed”.
For “MKAVFAKLGSDFFSTIVFVVLYFSTGNVALATIVAVLGAVGQFIYAKIKGQRLDVMAYASVALVVVLGGATLLTNDPRFVLIKPSVGHIAVGLLMLRRDWMLRYVPPIVAETIPDYVRIAGYAWAALMLLLGTGVIAAAMTGDIKVWTFYVMVIAPAFKVAAFAGQYLVFRIAIRSRRRAAVATAEPAASTPVTAEP”, the protein production was “failed”.
With “MKCIPYSVLLKDLEMRNLRELEDLIIEAVYTDIIQGKLDQRNQLLEVDFCIGRDIRKKDINNIVKTLHEWCDGCEAVLLGIEQQVLRANQYKENHNRTQQQVEAEVTNIKKTLKATASSSAQEMEQQLAERECPPHAEQRQPTKKMSKVKGLVSSRH” the protein production was “not failed”.
With “MKDETNIKTIALAIVLIAGYNVYTSQQDVKMFSLTLANIEALAMDETTQCDNANGYRRILEGDERIYDCCYLEKVGKLEHHHHHH” the protein production was “failed”.
With “MKDGMKQQKLVEKMTIEEKAAILSGKTVWQTREIDRLSIPSIFLSDGPHGIRKQAGTGDHLGLNASLNATCFPTAATIANSWNQNLGEEIGQALGEEAASMDVNILLGPGLNIKRSPLCGRNFEYFSEDPYLSGKMAASYIRGIQSKGVYACPKHLAVNSQELRRMAMDAVVDERTLREIYLTGFEIAVKEGHAKAIMSSYNQINGIYANEDKHLLTDILRKDWGFDGIVVTDWGGSNDHVKGVAAGSNLEMPSCGYDSAREVIAAVQNGKLKEADLDERVGELVDAVMELTSGKKLSDKNFDRNEHHQLARKAAAESMILLKNEKQILPLDTKKSIAVIGDFAFSPRYQGAGSSMVNPTKVEDMSSILQQYDLNILGMTRGYHRNGDVDENDRKFALNLSMNADIVIFCFGLDEISESEGLDRTHMRIPQDQIDLLQDISKVNENVIGILSAGSAIEMPWHTCCKAILHGYLNGQAGASATLDILTGKVNPSGRLAETYPISYEQTPAYRYYPSNEKTSEYRESVYVGYRYYDTSKVRVQYPFGFGLSYTEFTYSDLIIEEDGIKVSVTNTGDRDGAEVVQMYVGLPNAIVFRPEKELKGFAKVYLKAGESRQIRIPFDDKTFRYWNIKTGQWEIETGTYQIMVGASVADIRLTGMTERTGNSKGYPYNPAKMPYYYTGIVQKISDEEFRELLGHEIPNRRWSGNLEINDAICQMYYAKSRLARLIYRCLTKMKKKSEAQGKPDLNILFIYNMPFRGIAKMTGGAVSMEMVYGIVDAVNGHFMLGVKKIIGGYFRNRRNNKKYEKLLKGAGGKCR” the protein production was “failed”.
With “MKDIIITSQKIKRERNIYLICFLLSFAINIIAILVYTRPWIEIFTQLGYVLVISFFIYFILWIPRILVIGLRHLLRKKK” the protein production was “failed”.
In the case of “MKDNYDAPESMLTGRVMYNGEALQLRGNEAVQLQLYQHGYAKHDPINVYVNQDGMYSANLFDGEYQMITKSGNGPWTSEGRDTINVTVAGNTVQDVEVTPYYLVRDAQMTLEGNKVNASFKVEKVAGGGIDRVFFMLSTTQFVNDAEHNVDRYDETDNLDAYDETGKLYTFATRDYTDNSMFQTALKRGTLFGRICIWPKGSDQGIYSKVIRLK”, the protein production is reported as “not failed”.
In the case of “MKDSAQNFSTEKTGLKPVIRKIYDCLFDSYGPQGWWPLTELREAEGTNPTKTGSVQGYHPADYTYPQTRNQRFEIICGALLTQNTSWIQVEKALLNLKDLLSLKQINSFSPETIISLDTEILKEAIRPAGYYNQKAMRLKNLACWFLELENRIPARKELLSLKGVGPETADSILLYAFKQPSFVVDAYTKRIVTNLGLADEKAGYNEIKALFEENLPEDTTVYQEYHALLVEHAKRYYQKKSIRTNDIILKHVF”, the protein production is reported as “failed”.
With “MKEALKKYNLPIVFVITYVFGCVFAMLCQNTAGEVIMNLLIFALIVLVIYAIIFNYVMYSKMSFGQNFLYILFSSIIYIFGLIFVMILSAVIGDSINNSNDDFGFLLMMFGTSFTMGIFFAYLIPIVPSAIVKLLCGHEKK” the protein production was “failed”.
With “MKEFLNSLSYGISSHEVNNEFKQIFRELLTNHIIKEHKNKYYLNNGFAFGVLDISSKGTGFLQCFDESFKKDLLIENKNLKGANYKDIVAVKLLPLKKKRPSAKVILVLKRANETSLMITKRYGEAVLGMNIKTGLSTALKASQKSLKALPLGTILKIENENNNIIEVLGHIDDESVDEKISLALFNKNNEFSDACIKEALANGDSVDASMYENRMDLRALPFCTIDPIHAKDFDDAIYFDTQKREIYVAIADVSEYVYAYSAIDKEARNRGFSIYFPHIAIPMLPRPLSENICSLKPHLDRLAYCFKITLNHENKVIKEELFEGIINSKRRFNYDEVDEILIQKPDLKELSWLYELFEITKNLRKMRLKNAFEFRTEELRMNLDENLSLKSTVFEKDTPSHNLIEDCMLLANKAAAKLIDIGVFRNHLSADVRKIDKLLNELRELGIDVNFKPNLPELIRDIQALADELNLRAEVDKLIIKAQKKAEYSSVNAGHFGLGFDKYSHFTSPIRRYSDLILHRLLKAKQKNDEKLFNYLLLNIESTCENLSTLEREADKVAFDFMDRKFARWAAKNIGKKFKALVVQNDGVCIAKLDDEIKGADIILYDTRVNLLENVEVQIMEADIVMAKIYAKITQRLIKEENV” the protein production was “failed”.
In the case of “MKEIRIILMGTGNVGLNVLRIIDASNRRRSAFSIKVVGVSDSRSYASGRNLDISSIISNKEKTGRISDRAFSGPEDLMGEAADLLVDCTPASRDGVREYSLYRMAFESGMNVVTANKSGLANKWHDIMDSANQNSKYIRYEATVAGGVPLFSVLDYSILPSKVKRFRGIVSSTINYVIRNMANGRSLRDVVDDAIKKGIAESNPQDDLNGLDAARKSVILVNHIFGTEYTLNDVEYSGVDERSYNANDRLVTEVYVDDRRPVAVSRIISLNKDDFLMSIGMDGLGYQIETDSNGTVNVSDIYDGPYETAGAVVNDILLLSKVQK”, the protein production is reported as “failed”.
With “MKEIRYLVRQRLPFRGHDESDESANRGNFLELVKYTVGQNEVISKVVLENAPKNNQMVFDEMSEPLIPETRDPVPSSFLLLDLILDYPVVWQQTVQSNVSDKEQMAVVFRFVDKHGTVKERFIGLIHVKETSSASLKCAIDSLFAKRGLSMKQLRGQGYDGANNMKGEFNWLRSLILRENSSAYYIHCFAHQLQLVVVAVAKKQFEVGDFFDMISALLNVVGASCKGKDRIREEYLKEIEEGINQGEIKTGKGLNQELSLQRPGNTRWGTHYTTLHRLAHLFSVIIKLLEFVEEEGTDSTKRRQANGLLKYFNTFDFAFYLQLMLLLLGLTNSLSVALQKKDQDILNPMSLVKSTKQQLCKLRDDGWDSLVNEVFSFCKKHDIELVIMDGEFVNPRNPRKRSNMTNFHHYQVECFYTILDMQIQEFNDRFDEVNTELLSCVASLSPIDSFHEFDQLKVLRLSEFYPQDFTHVDRRSLEHQLGLYIDNIREDERFAN” the protein production was “failed”.
For “MKEKGGDSLKYCYQCGLCDSVCPWNRVRQFSMRKIVRQGTFGLTEIEQEDIWRCSTCGTCPSRCPRGVNQIEAGVAMRRIGAEYDVLEHHHHHH”, the protein production was “failed”.
With “MKEKVSVPFMLLGILFNVCLIAANLLETKVIQVGSITVTAGLLVFPISYIINDCIAEVWGFKKARLIIWSGFAMNFFVVALGLIAVALPAAPFWEGEQHFDFVFGMAPRIVVASLLAFLVGSFLNAYVMSKMKVASGGRNFSSRAIWSTMVGETADSLIFFPIAFGGLIAWPELLVMMGTQIVLKSLYEVIILPITIRVVKAVKRIDGSDVYDTDISYNVLKVKDI” the protein production was “failed”.
For “MKEKVVIITGGSSGMGKGMATRFAKEGARVVITGRTKEKLEEAKLEIEQFPGQILTVQMDVRNTDDIQKMIEQIDEKFGRIDILINNAAGNFICPAEDLSVNGWNSVINIVLNGTFYCSQAIGKYWIEKGIKGNIINMVATYAWDAGPGVIHSAAAKAGVLAMTKTLAVEWGRKYGIRVNAIAPGPIERTGGADKLWISEEMAKRTIQSVPLGRLGTPEEIAGLAYYLCSDEAAYINGTCMTMDGGQHLHQYPF”, the protein production was “not failed”.
In the case of “MKELAGKNLGVTTRFVLRYVFQNTIHSIWRERNERRHGEKPSRTEKIVKLIDKNIRNRLSTIRVRGEEKYAQGTQMRFASRQYQIDRTFL”, the protein production is reported as “failed”.
In the case of “MKELIRKLTEAFGPSGREEEVRSIILEELEGHIDGHRIDGLGNLIVWKGSGEKKVILDAHIDEIGVVVTNVDDKGFLTIEPVGGVSPYMLLGKRIRFENGTIGVVGMEGETTEERQENVRKLSFDKLFIDIGANSREEAQKMCPIGSFGVYDSGFVEVSGKYVSKAMDDRIGCAVIVEVFKRIKPAVTLYGVFSVQEEVGLVGASVAGYGVPADEAIAIDVTDSADTPKAIKRHAMRLSGGPALKVKDRASISSKRILENLIEIAEKFDIKYQMEVLTFGGTNAMGYQRTREGIPSATVSIPTRYVHSPSEMIAPDDVEATVDLLIRYLGA”, the protein production is reported as “not failed”.
For “MKESNHLMDTPYSYLIRSIGMKLKTSADARLAELGLNSQQGRMIGYIYENQESGIIQKDLAQFFGRRGASITSMLQGLEKKGYIERRIPENNARQKNIYVLPKGAALVEEFNNIFLEVEESITKGLTKDEQKQLMSILIKVNRSM”, the protein production was “not failed”.
